In series [1] the target is T1, SaPrp (Staphylococcus aureus, UniProt Q2FXS9, N63Q).
T1 sequence (Q2FXS9 1-106 N63Q): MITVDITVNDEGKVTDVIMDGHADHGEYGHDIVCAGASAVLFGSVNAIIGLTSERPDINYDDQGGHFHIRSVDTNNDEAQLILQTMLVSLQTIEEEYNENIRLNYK
The series is described as follows: Michaelis–Menten steady-state kinetics, cleavage of FITC-[…]-Dnp. The format is biochemical.

The target of series [2] is T1, SaPrp. The format is biochemical. To be noted: compound at 100 μM, FITC-conjugated peptide.
The test system of series [3] is SaPrp. The series is described as follows: Covalent complex formation with SaPrp, mass spectrometry. As to conditions: 2.6-fold molar excess over SaPrp, 1 h, room temperature. The format is biochemical, Staphylococcus aureus.
For series [4] the following is noted: other cysteine proteases, means and standard deviations; cited from earlier work.

Primed or numbered codes have the meaning given here. *: point of attachment. FITC = O=C1OC2(c3ccc(O)cc3Oc3cc(O)ccc32)c2ccc(NC(=S)*)cc21; Dnp′ = not defined here; CH2Cl = ClC*

As a reminder, the Vmax is the rate approached at saturating substrate. Consider “FITC-KLNLQFFASKK-Dnp ({FITC}-KLNLQFFASKK-{Dnp′}) [Compound 1]”, for which the Vmax in the series with SaPrp [1] (FITC-KLNLQFFASKK-Dnp substrate 0.2–20 μM, 48.2 nM SaPrp (monomer)) was 11 ± 4.0 nM/s. The kcat with SaPrp [1] (FITC-KLNLQFFASKK-Dnp substrate, ET constrained to 42.8 nM active sites) is listed as 0.26 ± 0.05 s^–1.

As for `COC([CH2][Hg+])CNC(=O)c1ccccc1OCC(=O)O.[OH-]` (stereo not drawn) [Compound 4, Mersalyl Acid], the “Inhibition of Prp at 100 μM” value at SaPrp [2] was “Prp could not cleave the peptide”.

Regarding “acetyl-KLNLQFF-chloromethylketone (Ac-KLNLQFF-CH2Cl; SMILES CC(=O)N[C@@H](CCCCN)C(=O)N[C@@H](CC(C)C)C(=O)N[C@@H](CC(N)=O)C(=O)N[C@@H](CC(C)C)C(=O)N[C@@H](CCC(N)=O)C(=O)N[C@@H](Cc1ccccc1)C(=O)N[C@@H](Cc1ccccc1)C(=O)CCl) [Ac-KLNLQFF-CMK]”, the “Formation of the covalent complex with SaPrp” value with SaPrp [3] is reported as over 95%.

B1: papain: literature comparator cysteine protease (protein, UniProt P00784 134-345, looked up)
Papain: IPEYVDWRQKGAVTPVKNQGSCGSCWAFSAVVTIEGIIKIRTGNLNEYSEQELLDCDRRSYGCNGGYPWSALQLVAQYGIHYRNTYPYEGVQRYCRSREKGPYAAKTDGVRQVQPYNEGALLYSIANQPVSVVLEAAGKDFQLYRGGIFVGPCGNKVDHAVAAVGYGPNYILIKNSWGTGWGENGYIRIKRGTGNSYGVCGLYTSSFYPVKN
As to B1, the kcat in series [4] is recorded as 0.0162 ± 0.000135 s^–1.

B2: μ-calpain: literature comparator cysteine protease (protein, UniProt P07384 2-714; P04632 1-268, looked up)
Calpain-1 catalytic subunit: SEEIITPVYCTGVSAQVQKQRARELGLGRHENAIKYLGQDYEQLRVRCLQSGTLFRDEAFPPVPQSLGYKDLGPNSSKTYGIKWKRPTELLSNPQFIVDGATRTDICQGALGDCWLLAAIASLTLNDTLLHRVVPHGQSFQNGYAGIFHFQLWQFGEWVDVVVDDLLPIKDGKLVFVHSAEGNEFWSALLEKAYAKVNGSYEALSGGSTSEGFEDFTGGVTEWYELRKAPSDLYQIILKALERGSLLGCSIDISSVLDMEAITFKKLVKGHAYSVTGAKQVNYRGQVVSLIRMRNPWGEVEWTGAWSDSSSEWNNVDPYERDQLRVKMEDGEFWMSFRDFMREFTRLEICNLTPDALKSRTIRKWNTTLYEGTWRRGSTAGGCRNYPATFWVNPQFKIRLDETDDPDDYGDRESGCSFVLALMQKHRRRERRFGRDMETIGFAVYEVPPELVGQPAVHLKRDFFLANASRARSEQFINLREVSTRFRLPPGEYVVVPSTFEPNKEGDFVLRFFSEKSAGTVELDDQIQANLPDEQVLSEEEIDENFKALFRQLAGEDMEISVKELRTILNRIISKHKDLRTKGFSLESCRSMVNLMDRDGNGKLGLVEFNILWNRIRNYLSIFRKFDLDKSGSMSAYEMRMAIESAGFKLNKKLYELIITRYSEPDLAVDFDNFVCCLVRLETMFRFFKTLDTDLDGVVTFDLFKWLQLTMFA
Calpain small subunit 1: MFLVNSFLKGGGGGGGGGGGLGGGLGNVLGGLISGAGGGGGGGGGGGGGGGGGGGGTAMRILGGVISAISEAAAQYNPEPPPPRTHYSNIEANESEEVRQFRRLFAQLAGDDMEVSATELMNILNKVVTRHPDLKTDGFGIDTCRSMVAVMDSDTTGKLGFEEFKYLWNNIKRWQAIYKQFDTDRSGTICSSELPGAFEAAGFHLNEHLYNMIIRRYSDESGNMDFDNFISCLVRLDAMFRAFKSLDKDGTGQIQVNIQEWLQLTMYS
Turning to B2, the kcat in series [4] was 0.015 ± 0.002 s^–1.

The values above are taken from paper PMC9261936 (Biochemistry, 2022).
